Legend:
[1] = type: physicochemical; conditions: all lipid mixtures; van't Hoff analysis of CD partitioning data
[2] = Isothermal titration calorimetry: enthalpy of melittin partitioning into LUVs; type: physicochemical; conditions: for −TΔS: from ΔG = ΔH − TΔS, ± joint confidence limits
[3] = CD titration of melittin with SUVs: free energy of partitioning; type: physicochemical; conditions: 5 mM lipid, estimated from measured partitioning free energy ΔG
[4] = Isothermal titration calorimetry: enthalpy of melittin partitioning into SUVs; type: physicochemical; conditions: POPC SUVs, 25°C; ITC, 10 μl of 100 μM melittin into 5 mM lipid
[5] = CD spectroscopy: helical content of membrane-bound melittin; type: physicochemical; conditions: for peptide helical fraction f α: 25°C, CD molar ellipticity at 222 nm
[6] = Hydrophobic-effect free energy ΔG hϕ calculated from measured heat capacity; type: physicochemical; conditions: for hydrophobic free energy ΔG hϕ: calculated from measured heat capacity
[7] = cited from earlier work
[8] = various methods, mole-fraction partition coefficients, ref Beschiaschvili and Baeuerle 1991, Kuchinka and Seelig 1989, Ladokhin et al. 2000, Ladokhin and White 1999, Schwarz and Beschiaschvili 1989, Vogel 1981; cited from earlier work

## melittin
[1]
  heat capacity change: approximately −0.5 kcal mol^−1 K^−1
[2]; LUVs at different lipid content, slope of enthalpy vs temperature (Fig. 4b)
  change of heat capacity: about −0.5 kcal/molK
[2]; POPC 50%:POPG 50% LUVs, 25°C
  −TΔS: −2.8 (±1) kcal mol^−1
[2]; POPC 50%:POPG 50% LUVs, 40°C
  −TΔS: 3.08 (±1) kcal mol^−1
[2]; POPC 50%:POPG 50% LUVs, 50°C
  −TΔS: 8.73 (±1.1) kcal mol^−1
[2]; POPC 50%:POPG 50% LUVs, 60°C
  −TΔS: 16.99 (±1.5) kcal mol^−1
[2]; POPC 75%:POPG 25% LUVs, 25°C
  −TΔS: −4.42 (±0.6) kcal mol^−1
[2]; POPC 75%:POPG 25% LUVs, 40°C
  −TΔS: 3.24 (±0.8) kcal mol^−1
[2]; POPC 75%:POPG 25% LUVs, 50°C
  −TΔS: 8.32 (±0.4) kcal mol^−1
[2]; POPC 75%:POPG 25% LUVs, 60°C
  −TΔS: 15.06 (±1.1) kcal mol^−1
[2]; POPC 90%:POPG 10% LUVs, 25°C
  −TΔS: −5.9 (±1.5) kcal mol^−1
[2]; POPC 90%:POPG 10% LUVs, 40°C
  −TΔS: −2.25 (±0.9) kcal mol^−1
[2]; POPC 90%:POPG 10% LUVs, 50°C
  −TΔS: 3.3 (±1) kcal mol^−1
[2]; POPC 90%:POPG 10% LUVs, 60°C
  −TΔS: 5.73 (±1.1) kcal mol^−1
[2]; POPC 100%:POPG 0% LUVs, 40°C
  −TΔS: −12.3 (±1.6) kcal mol^−1
[2]; POPC 100%:POPG 0% LUVs, 50°C
  −TΔS: −6.2 (±1.4) kcal mol^−1
[2]; POPC 100%:POPG 0% LUVs, 60°C
  −TΔS: −3.2 (±1.3) kcal mol^−1
[2]; all lipid mixtures (POPC:POPG 0–50% POPG), independent of lipid composition
  heat capacity associated with partitioning: about −0.5 kcal mol^−1 K^−1
[3]
  fraction of melittin bound: 95%
[4]
  enthalpy change, before corrections: ≈ −10 kcal mol^−1
[5]; POPC50:POPG50, 5°C, CD
  fraction of peptide bound: ≈ 0.57
[5]; POPC50:POPG50 LUVs
  peptide helical fraction f α: 0.71
[5]; POPC75:POPG25 LUVs
  peptide helical fraction f α: 0.73
[5]; POPC90:POPG10 LUVs
  peptide helical fraction f α: 0.71
[5]; POPC LUVs, Luo and Baldwin formula
  peptide helical fraction f α: 0.71
[5]; melittin bound to a lipid membrane at 25°C, CD
  α-helical content: ~ 70%
[5]; pure POPC, 5°C, CD
  helical fraction of peptide (or the fraction of peptide bound): ≈ 0.57
[5]; pure POPC, 60°C, CD
  fraction of peptide bound: ≈ 0.63
[6]; POPC
  T h (temperature at which ΔH hϕ has a bulk-phase transfer value of 0): 326 K
  T s (temperature at which ΔS hϕ has a bulk-phase transfer value of 0): 336 K
[6]; POPC50:POPG50
  T h: 292 K
  T s: 305 K
[6]; POPC50:POPG50, 25°C
  hydrophobic free energy ΔG hϕ: −7.50 (±0.52) kcal mol^−1
[6]; POPC75:POPG25
  T h: 294 K
  T s: 306 K
[6]; POPC75:POPG25, 25°C
  hydrophobic free energy ΔG hϕ: −6.87 (±0.30) kcal mol^−1
[6]; POPC90:POPG10
  T h: 296 K
  T s: 316 K
[6]; POPC90:POPG10, 25°C
  hydrophobic free energy ΔG hϕ: −6.68 (±0.22) kcal mol^−1
[6]; POPC, 25°C
  contribution of the hydrophobic effect to the total free energy: approximately 79%
  hydrophobic free energy ΔG hϕ: −4.88 (±2.83) kcal mol^−1
[7]; formal peptide charge as stated, no reference given
  electrical valence (formal valence): 5–6
[7]; literature value, ref Beschiaschvili and Baeuerle 1991
  effective charge: ≈ 2
[8]
  free energy of partitioning of unfolded melittin into the bilayer interface of POPC vesicles: −6 to −7 kcal mol^−1

From article PMC3030945 (The Journal of Membrane Biology, 2010)
